From the supplement of paper PMC7125110
± gives the standard error. For part of these data: Variants at the floor of the assay were thinned out.

B1: glmS ribozyme (parent)
chain: AUAAAAGCGCCAGAACUACAGAAAUGUAGUUGACGAGGAGGAGGUUUAUCGAAUUUUCGGCGGAUGCCUCCAAA

How the values were obtained:
Conditions in all cases: with glucosamine-6-phosphate
[1] = variants of: B1; test: kcat; higher = faster cleavage; RNA array
Summary of the method: (§1)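 A hybridised Cy3 probe tracked barcoded ribozyme variants, transcribed in situ by E. coli RNA polymerase on sequenced MiSeq chips, at 37 °C. The variants received 40 μM to 10 mM glucosamine-6-phosphate in HEPES/KCl/Mg(OAc)2 buffer. kobs came from decay fits and kcat and KM from weighted Michaelis–Menten fits.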

[2] = variants of: B1; test: self-cleavage kobs at 2500 uM GlcN6P; higher = faster cleavage; RNA array
Summary of the method: as §1

[3] = variants of: B1; test: self-cleavage kobs at 10000 uM GlcN6P; higher = faster cleavage; RNA array
Summary of the method: as §1

[4] = variants of: B1; test: KM; higher = weaker cofactor use; RNA array
Summary of the method: as §1

[5] = variants of: B1; test: self-cleavage kobs at 160 uM GlcN6P; higher = faster cleavage; RNA array
Summary of the method: as §1

[6] = variants of: B1; test: self-cleavage kobs at 640 uM GlcN6P; higher = faster cleavage; RNA array
Summary of the method: as §1

[7] = variants of: B1; test: self-cleavage kobs at 40 uM GlcN6P; higher = faster cleavage; RNA array
Summary of the method: as §1

| Variant | kcat [1] [s⁻¹] | self-cleavage kobs at 2500 uM GlcN6P [2] [s⁻¹] | self-cleavage kobs at 10000 uM GlcN6P [3] [s⁻¹] | KM [4] [µM] | self-cleavage kobs at 160 uM GlcN6P [5] [s⁻¹] | self-cleavage kobs at 640 uM GlcN6P [6] [s⁻¹] | self-cleavage kobs at 40 uM GlcN6P [7] [s⁻¹] |
| --- | --- | --- | --- | --- | --- | --- | --- |
| C16U C50A | 2.89e-05 ± 7.6e-06 | 4.91e-05 ± 1.8e-05 | 2.32e-05 ± 1.1e-05 |  |  |  |  |
| A15U U46A | 0.000378 ± 2.9e-05 | 0.000225 ± 2.3e-05 | 0.000303 ± 3.2e-05 | 2050 ± 300 | 3.16e-05 ± 1.1e-05 | 8.53e-05 ± 9.5e-06 |  |
| A15U U30G | 0.0605 ± 0.018 | 0.0219 ± 0.0035 | 0.0582 ± 0.012 | 3400 ± 1200 | 0.00242 ± 0.00032 | 0.00977 ± 0.0011 | 0.000777 ± 7.3e-05 |
| A15U G38U | < 1e-05 |  |  |  | < 1e-05 |  | < 1e-05 |
| C16A U46G A48G C50U C67A | 1.04e-05 ± 4.5e-06 |  |  |  |  |  |  |
| A15G G37U U54A U55A G60C C68G | 2.16e-05 ± 6.5e-06 |  |  |  |  |  |  |
| C16U A52U | 0.00041 ± 1.4e-05 | 0.000132 ± 2.2e-05 | 0.000274 ± 2.9e-05 | 5030 ± 320 |  | 4.82e-05 ± 1.2e-05 | < 1e-05 |
| C16U A52C | 1.88e-05 ± 3.1e-06 |  |  |  |  |  |  |
| C16U A52G | 0.00224 ± 0.00092 | 0.000576 ± 7.9e-05 | 0.0016 ± 0.00017 |  | 9.03e-05 ± 2.1e-05 | 0.000237 ± 5.8e-05 | 3.86e-05 ± 9e-06 |
| G29A A39C | 0.000943 ± 4.4e-05 | 0.000521 ± 8.6e-05 | 0.000813 ± 9.1e-05 | 1820 ± 150 | 7.61e-05 ± 1.5e-05 | 0.000243 ± 3.2e-05 | 2.46e-05 ± 8.5e-06 |
| G29A A39U | 0.0047 ± 0.0016 | 0.00176 ± 0.0003 | 0.0037 ± 0.00049 | 3440 ± 1600 | 0.000177 ± 3.4e-05 | 0.000731 ± 0.00013 | 0.000107 ± 1.9e-05 |
| A15G G40C | 0.00522 ± 0.0011 | 0.0027 ± 0.00028 | 0.00506 ± 0.00049 | 1800 ± 590 | 0.000354 ± 6.3e-05 | 0.00122 ± 0.00017 | 0.000151 ± 1.6e-05 |
| C16G A52G | 0.000339 ± 0.0001 | 0.000119 ± 1.9e-05 | 0.000262 ± 4.1e-05 |  |  | 7.43e-05 ± 2.3e-05 |  |
| C16U C67G | 0.000799 ± 5.5e-05 | 0.000566 ± 6.2e-05 | 0.000664 ± 5.4e-05 | 1570 ± 190 | 7.2e-05 ± 9.4e-06 | 0.000229 ± 2.2e-05 | 1.87e-05 ± 6.4e-06 |
| C16U C67A | 0.00194 ± 0.0004 | 0.00166 ± 0.0003 |  | 360 ± 110 | 0.0005 ± 6.7e-05 | 0.00138 ± 0.00017 | 0.000212 ± 2.2e-05 |
| A15U U65G | 0.00187 ± 0.00077 | 0.00056 ± 0.00017 | 0.00139 ± 0.00025 |  | 6.21e-05 ± 1e-05 | 0.00036 ± 4.5e-05 | 3.19e-05 ± 1.1e-05 |
| C16G A53U | 0.00332 ± 0.00045 | 0.00182 ± 0.0004 | 0.00295 ± 0.00047 | 1910 ± 380 | 0.000238 ± 6e-05 | 0.000752 ± 0.00012 | 8.15e-05 ± 1.4e-05 |
| C16U G59U | 4.21e-05 ± 7.7e-06 | 4.99e-05 ± 1.2e-05 | 3.73e-05 ± 7.2e-06 |  |  |  |  |
| C16G C67U | 0.000669 ± 7.7e-05 | 0.000504 ± 6.2e-05 | 0.000642 ± 8.6e-05 | 736 ± 160 | 0.000106 ± 1.5e-05 | 0.000318 ± 3.4e-05 | 4.87e-05 ± 9.4e-06 |
| C16U U30A G40A | 0.000118 ± 1.8e-05 | 8.29e-05 ± 2.2e-05 |  | 1030 ± 380 |  | 4.8e-05 ± 2e-05 | < 1e-05 |
| C16U G32A A33G C58U C70G | 3.69e-05 ± 8.5e-06 |  |  |  |  |  |  |
| C16G U46A | 0.000198 ± 1.7e-05 | 0.000146 ± 2.2e-05 | 0.000213 ± 4.4e-05 | 676 ± 180 | 4.2e-05 ± 2e-05 | 9.94e-05 ± 2.2e-05 |  |
| A15U U47A | 0.00433 ± 0.0014 | 0.00263 ± 0.00057 | 0.00356 ± 0.0009 | 1960 ± 890 | 0.000273 ± 6.7e-05 | 0.000846 ± 0.00036 | 0.00015 ± 3.6e-05 |
| A15G U69G | 7.83e-05 ± 1.2e-05 | 0.00012 ± 1.7e-05 | 7.05e-05 ± 9.2e-06 |  | 5.34e-05 ± 2.7e-05 | 6.2e-05 ± 1.2e-05 | 3.29e-05 ± 1.2e-05 |
| C16G C50G | 4.79e-05 ± 1.9e-05 | 6.05e-05 ± 1.4e-05 |  |  |  |  |  |
| A15G G29C U31C A39U | 0.000143 ± 2.1e-06 | 5.02e-05 ± 1.3e-05 | 9.79e-05 ± 1.4e-05 | 4650 ± 160 |  |  |  |
| C16G G51C | < 1e-05 |  |  |  |  |  | < 1e-05 |
| C16A C50A U69C | 3.42e-05 ± 1.5e-05 | 5.24e-05 ± 2.3e-05 |  |  |  |  |  |
| C16G C71U | 0.00252 ± 0.00053 | 0.00228 ± 0.00066 | 0.00248 ± 0.00036 | 956 ± 300 | 0.000323 ± 5.6e-05 | 0.000865 ± 0.00012 | 0.000132 ± 1.8e-05 |
| G29A C67U | 0.000866 ± 0.00021 | 0.00056 ± 0.00012 | 0.00104 ± 0.00017 | 742 ± 320 | 0.000247 ± 5.1e-05 | 0.00034 ± 5.8e-05 | 4.43e-05 ± 8.6e-06 |
